Source: ChEMBL document CHEMBL1142160, “Overexpression and initial characterization of the chromosomal aminoglycoside 3'-O-phosphotransferase APH(3')-IIb from Pseudomonas aeruginosa” (2007)

Columns and labels:
[1] = substrate: NCC[C@H](O)C(=O)N[C@@H]1C[C@H](N)[C@@H](O[C@H]2O[C@H](CN)[C@@H](O)[C@H](O)[C@H]2O)[C@H](O)[C@H]1O[C@H]1O[C@H](CO)[C@@H](O)[C@H](N)[C@H]1O; experiment: (§1) Ratio of kcat to km for PH(3')-2b activity; details: Pseudomonas aeruginosa
[2] = substrate: NC[C@@H]1O[C@@H](O[C@H]2[C@H](O)[C@@H](O[C@H]3O[C@H](CO)[C@@H](O)[C@H](N)[C@H]3O)[C@H](N)C[C@@H]2N)[C@@H](O)[C@H](O)[C@H]1O; experiment: as §1; details: Pseudomonas aeruginosa
[3] = substrate: NC[C@@H]1O[C@H](O[C@H]2[C@@H](O)[C@H](O[C@@H]3[C@@H](O)[C@H](N)C[C@H](N)[C@H]3O[C@H]3O[C@H](CN)[C@@H](O)[C@H](O)[C@H]3N)O[C@@H]2CO)[C@H](N)[C@@H](O)[C@@H]1O; experiment: as §1; details: Pseudomonas aeruginosa
[4] = substrate: NC[C@H]1O[C@H](O[C@H]2[C@H](O)[C@@H](O)[C@H](N)C[C@@H]2N)[C@H](N)[C@@H](O)[C@@H]1O; experiment: as §1; details: Pseudomonas aeruginosa
[5] = substrate: NC[C@H]1O[C@H](O[C@H]2[C@H](O[C@@H]3O[C@H](CO)[C@@H](O)[C@H]3O)[C@@H](O)[C@H](N)C[C@@H]2N)[C@H](N)[C@@H](O)[C@@H]1O; experiment: as §1; details: Pseudomonas aeruginosa
[6] = substrate: NCC[C@H](O)C(=O)N[C@@H]1C[C@H](N)[C@@H](O[C@H]2O[C@H](CN)[C@@H](O)[C@H](O)[C@H]2O)[C@H](O)[C@H]1O[C@H]1O[C@H](CO)[C@@H](O)[C@H](N)[C@H]1O; experiment: (§2) Activity against Pseudomonas aeruginosa APH(3')-2b expressed in Escherichia coli BL21(DE3) assessed as phosphorylation
[7] = substrate: NC[C@@H]1O[C@@H](O[C@H]2[C@H](O)[C@@H](O[C@H]3O[C@H](CO)[C@@H](O)[C@H](N)[C@H]3O)[C@H](N)C[C@@H]2N)[C@@H](O)[C@H](O)[C@H]1O; experiment: as §2
[8] = substrate: NC[C@@H]1O[C@H](O[C@H]2[C@@H](O)[C@H](O[C@@H]3[C@@H](O)[C@H](N)C[C@H](N)[C@H]3O[C@H]3O[C@H](CN)[C@@H](O)[C@H](O)[C@H]3N)O[C@@H]2CO)[C@H](N)[C@@H](O)[C@@H]1O; experiment: as §2
[9] = substrate: NC[C@H]1O[C@H](O[C@H]2[C@H](O)[C@@H](O)[C@H](N)C[C@@H]2N)[C@H](N)[C@@H](O)[C@@H]1O; experiment: as §2
[10] = substrate: NC[C@H]1O[C@H](O[C@H]2[C@H](O[C@@H]3O[C@H](CO)[C@@H](O)[C@H]3O)[C@@H](O)[C@H](N)C[C@@H]2N)[C@H](N)[C@@H](O)[C@@H]1O; experiment: as §2

B1: Aminoglycoside 3'-phosphotransferase type IIb (Pseudomonas aeruginosa (strain ATCC 15692 / PAO1 / 1C / PRS 101 / LMG12228)), Q9HWR2 (protein)
chain: MHDAATSMPPQAPSTWADYLAGYRWRGQGEGCSAATVHRLEAARRPTLFVKQEVLSAHAELPAEIARLRWLHGAGIDCPQVLNETQSDGRQWLLMSAVPGDTLSALAQRGELEPERLVRLVAAALRRLHDLDPAACPFDHRLERRLDTVRQRVEAGLVDEADFDDDHRGRSATELYRLLLDRRPAVEDLVVAHGDACLPNLLAEGRRFSGFIDCGRLGVADRHQDLALAARDIEAELGAAWAEAFLVEYGGDIDGERLAYFRLLDEFF
B1 was tested, and the kcat/Km [1] was 400000 M⁻¹ s⁻¹, the kcat/Km [2] was 360000 M⁻¹ s⁻¹ and the kcat/Km [3] was 120000 M⁻¹ s⁻¹. For the same protein, the kcat/Km [4] was 170000 M⁻¹ s⁻¹, the kcat/Km [5] was 190000 M⁻¹ s⁻¹ and the Km [6] was 440 µM. For the same protein, the Km [7] was 3.1 µM, the Km [8] was 17.5 µM and the Km [9] was 10.3 µM. It also gave a Km [10] of 10 µM.
